From patent US20030119733A1, “Compositions and methods for inhibiting hepatocyte invasion by malarial sporozoites” (New York University, priority 1992, published 2003)

B1: CSFZ (Cys): residues 27-123 plus NANP (a single instance) plus residues 300-411 of P. falciparum CS protein (protein)
chain: GSSSNTRVLNELNYDNAGTNLYNELEMNYYGKQENWYSLKKNSRSLGENDDGNNNNGDNGREGKDEDKRDGNNEDNEKLRKPKHKKLKQPGDGNPDPNANPMPNDPNRNVDENANANNAVKNNNNEEPSDKHIEQYLKKIKNSISTEWSPCSVTCGNGIQVRIKPGSANKPKDELDYENDIEKKICKMEKCSSVFNVVNSSIGLIMVLSFLFL

Columns and labels:
[1] = test system: CS binding to HepG2 cells; test: Enzyme treatment of HepG2 cells before CS binding; design: species or system human; conditions: heparitinase from 5 U/ml, chondroitinase ABC from 1 U/ml; CSFZ(Cys) 5 μg/ml
Experimental: In some experiments the HepG2 cells were treated with either heparitinase (Sigma) or chondroitinase ABC (ICN) before incubation with the CS. Heparitinase treatment was performed in 0.05 M acetate buffer, pH 6.0, containing 1 mg/ml BSA and 1 mM PMSF, 5μg/ml leupeptin and pepstatin. Cells were treated for 3 hours at 37° C. and then were washed 3× with TBS before protein was added. Chondroitinase ABC treatment was performed overnight at 37° C. in 0.1 M Tris/HCl, pH 8.0, 0.03 M sodium acetate and 0.1% BSA, and washed 3× with TBS. Enzyme-treated cells were then incubated with CS as outlined above.
Paraformaldehyde-fixed HepG2 cells were preincubated with varying amounts of enzyme, washed and then incubated with 5 μg/ml of CSFZ(Cys). […] Heparitinase and chondroitinase ABC were used at initial concentrations of 5 U/ml and 1 U/ml, respectively. […] Each point represents the mean of triplicates, and percent inhibition was calculated by comparison to cells that were not treated with enzyme.

[2] = test system: plasma membrane receptors for CS; test: Enzyme digestion of human liver sections before CS27IVC immunolabeling; format: binding; conditions: 2 hours 37°; chondroitinase ABC 2 U/ml, heparitinase 20 U/ml
Experimental: Normal rat kidney tissue was fixed with 4% paraformaldehyde and 1% glutaraldehyde in phosphate-buffered saline (PBS) and embedded in LR White; normal human liver was fixed similarly and embedded in Lowicryl K4M (Cerami et al., Cell 70:1021-1033, 1992). Ultrathin sections were sequentially labeled with 10-50 μg/ml CS27IVC, 15 μg/ml mAb 2A10 and a 1:30 dilution of PAG15. Prior to immunolabeling, part of the sections were incubated for 120 min at 37° C. with heparitinase and chondroitinase ABC (both ICN) using concentrations of 20 U/ml and 2 U/ml, respectively. Control specimens were incubated only with the gold markers or with mAb 2A10 and PAG15.
Human liver sections were incubated with heparitinase or chondroitinase ABC for 2 hours at 37° C., prior to immunolabeling with recombinant CS. The sections were then labelled with CS27IVC followed by mAb 2A10 and PAG15. FIGS. 8a and 8b are electron micrographs of Lowicryl K4M-embedded sections. The section of FIG. 8a was treated with 2 U/ml chondroitinase ABC (ICN) for 2 hour at 37° before the immunolabeling. The typical CS label on the space of Disse (D) and on the lateral domain of the hepatocyte plasma membrane (arrows) and on lysosomes (L) was unaltered. The patchy pattern of CS-labeled hepatocyte microvilli within the space of Disse was still present in the chondroitinase-treated sections (FIG. 8a). […]

HepG2 cells = test: HepG2 cell binding assay of recombinant CS polypeptides; design: species or system human; conditions: indirect immunofluorescence
Experimental: For indirect immunofluorescence, HepG2 cells (ATCC number HB8065, Rockville, Md.; Knowles, B. P., et al., Science 209:497-499, 1980) were grown on slides (Cel-Line Associates, Inc., Newfield, N.J.) overnight in minimum essential medium with 10% fetal calf serum (FCS-MEM; GIBCO, Grand Island, N.Y.), 1 mM L-glutamine (GIBCO), 3 mg/ml glucose (Sigma), 1×nonessential amino acids (GIBCO), 50 μg/ml penicillin, and 100 μg/ml streptomycin (GIBCO). For the enzyme-linked immunosorbent assay, 10^5 HepG2 cells were deposited in 96-well Falcon tissue culture plates (Becton Dickinson, Oxnard, Calif.) and grown for 24 hr. in FCS-MEM. The cells were fixed with 4% paraformaldehyde, washed three times with PBS, and stored at 4° C. in BSA/TPBS until use. Before the experiments, plates were blocked for 2 hr. at 37° C. with 1% gelatin, 0.05% Tween in PBS (pH 7.4) (gelatin/TPBS). […] After 15 min., fluorescence was read in a Fluoroskan II plate reader (Flow Lab Inc., McLean, Va.) with excitation filter 350 nm and emission filter 460 nm. […]
In order to quantify more accurately the effectiveness of various peptides in inhibiting the CS27IVC binding to hepatocytes additional experiments were performed using the human hepatoma cell line HepG2. This cell line is invaded readily by P.berghei sporozoites. […] The results, expressed in fluorescence units v. protein concentration are depicted in FIG. 6. […]

rat liver sections = test: Staining of frozen tissue sections with recombinant CS polypeptides; format: binding; conditions: revealed with MAb 2A10, fluorescence; CS27IVC 50-5 μg/ml, Falciparum-2 25 μg/ml, Falciparum-1 up to 250 μg/ml
Experimental: The procedure was carried out essentially as described by Dukor P. et al., Proc. Natl. Acad. Sci. USA 67:991-997, 1970 and Imai Y. et al., J. Cell. Biol. 111:1225-1232, 1990. Rats were euthanized with CO2. Small pieces of the liver, spleen, heart, brain and lung were removed, snap frozen in liquid nitrogen, embedded in Tissue Tek O.C.T. (Miles, Inc., Naperville, Ill.), and cut into 5 μm sections. Sections were dried for 30 min., fixed for 10 min. in 4% paraformaldehyde, rinsed three times with phosphate-buffered saline (PBS), and either used immediately or stored at 4° C. in 1% BSA, 0.5% Tween, PBS (BSA/TPBS). After blocking with 100 mM glycine (pH 7.2) and with BSA/TPBS, the sections were sequentially incubated at 37° C. with recombinant proteins for 1 hr, 10 μg/ml MAb 2A10 for 45 min., and rat anti-mouse immunoglobulin conjugated to fluorescein isothiocyanate (Boehringer Mannheim, Indianapolis, Ind.) for 45 min. The slides were counterstained for 10 min. with 0.3% Evans blue, rinsed extensively in PBS, and finally observed under a fluorescence microscope. For peptide inhibition experiments, the sections were first incubated with the peptide at various concentrations in BSA/TPBS for 1 hour at 37° C., washed six times with BSA/TPBS, and then stained with 2.5 μg/ml CS recombinant protein as described above. In a few experiments, the tissues were fixed for 10 min. with methanol, acetone, or 4% paraformaldehyde containing 0.5% glutaraldehyde.
Frozen sections of various rat organs were incubated with recombinant CS27IVC polypeptide. […] The staining closely followed the sinusoidal spaces of the hepatic lobules, indicating CS binding to the hepatocyte membrane. Other areas of the liver sections and sections of other organs (spleen, lung, heart or brain) were not stained. Control sections (incubated with CS27IVC in the absence of antibody or vice versa) were not stained either.
To define the region of the CS that mediates the perisinusoidal staining various other recombinant constructs were also used in the frozen section assay.

[3] = test system: heparan sulfate proteoglycans (HSPG); test: CS/proteoglycan co-immunoprecipitation; format: binding, human
Experimental: All extracts and supernatants were first precleared with normal rabbit serum and Staph A cells. Then 32 μg/ml of CSFZ(Cys) or 64 μg/ml of CS27IVC, Falc-2 or Falc-1 were added for 30 minutes, followed by 10.8 μg/ml mAb 2A10 for 30 minutes, and 1% Staph A cells (final concentrations). The suspensions were shaken for 1 to 5 hours at 4° C. The Staph A cells were washed 3 times with the lysis buffer A, 2 times with lysis buffer B (10 mM Tris-HCl, pH 7.2, containing 100 mM NaCl and 0.5% NP40), 1 time with 50 mM Tris-HCl, ph 7.2, and were processed in this buffer for electrophoresis under reducing and non-reducing conditions.
Extracts of cells metabolically labeled with ^35SO4 were incubated for 30 minutes at 4° C. with 32 μg/ml of recombinant CSFZ(Cys) or 64 μg/ml Falc-1, and were immunoprecipitated with mAb 2A10 and Staph A cells. […] Immunoprecipitation with Falc-1 was negative. The SDS-PAGE patterns of the total lysate of HepG2 cells, and of the molecules co-immunoprecipitated with CSFZ(Cys) resembled the corresponding liver SDS-PAGE patterns. In kidney lysates, CSFZ(Cys) selectively immunoprecipitated a band of slightly lower molecular weight than the total kidney sulfated molecules.
Sub-confluent HepG2 cells were incubated with various concentrations of trypsin for 5 minutes at 4° C. […] Independently of the trypsin concentration, about 80% of the released HSPG was co-immunoprecipitated by 32 μg/ml CSFZ(Cys) and 10.8 μg/ml mAb 2A10. Under the same conditions, Falc-1 was negative.
^35SO4-labeled trypsin-released proteoglycan (total supernatant) was precipitated by CSFZ(Cys) (32 μg/ml), Falc-2 (64 μg/ml), CS27IVC (64 μg/ml) and Falc-1 (64 μg/ml). The labeled molecules were incubated with CSFZ(Cys), CS27IVC, and Falc-2 at equivalent concentrations of Region II+, and co-immunoprecipitated with the mAb 2A10. CSFZ(Cys), lacking most of the repeat region, precipitated up to 86% of the total sulfate-labeled proteoglycans (see FIG. 14), while CS27IVC and Falc-2 precipitated only 18% and 6% of the counts, respectively. Falc-1, which lacks Region II+, was negative.
Subconfluent sulfate-labeled HepG2 cells were incubated with 20 μg/ml trypsin for 5 minutes at 4° C., and the supernatants were loaded onto an anion exchange chromatography Pharmacia mono-Q column. These were eluted with a 0 to 2 M NaCl gradient in the presence of 7 M urea. […] Protein was not detectable in the labeled peaks. One ml fractions were collected and counted.

Molecule	effect of enzyme treatment of HepG2 cells on CS binding [1]	CS27IVC label on human liver sections after enzyme treatment [2]	binding to HepG2 cells (HepG2 cells)	binding (staining) to frozen liver sections (rat liver sections)	co-immunoprecipitation of 35SO4-labeled sulfated molecules ([3]; lysates of rat liver, HepG2 cells, kidney, CSFZ(Cys) 32 μg/ml, others 64 μg/ml)	counts in the mono-Q peak co-immunoprecipitated ([3]; peak at 0.6 to 0.8 M NaCl)	released HSPG co-immunoprecipitated ([3]; trypsin-released from HepG2 cells, CSFZ(Cys) 32 μg/ml, mAb 2A10 10.8 μg/ml)	total sulfate-labeled proteoglycans precipitated ([3]; trypsin-released proteoglycan, equivalent concentrations of Region II+)
chondroitinase ABC	no effect	unaltered						
B1			bound	bound with the same pattern as CS27IVC	co-immunoprecipitated sulfated molecules	about 80%	about 80%	up to 86%
